Measurements: the nanobody polyreactivity screen of Harvey et al. (2022)

assay: yeast display, Sf9 membrane polyspecificity reagent, FACS + sequencing; frameworks hold sequencing errors
Method in brief: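 Galactose-induced (36–48 hours) yeast carrying a synthetic nanobody display library were exposed to 10% biotinylated, detergent-solubilized Sf9 membrane reagent at 4 °C for 1 hour. FACS followed streptavidin microbead enrichment, using low and high (top ~1%) gates for expression (anti-HA) and reagent binding (streptavidin). Colony PCR, MiSeq 2 × 250 sequencing and CDR-length filtering followed. Labels for polyreactivity reflect the gate of origin.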

Sequence	polyreactivity (PSR sort gate)
QVPLVESGVGLVQAGGSLRLSCAASGSIFSYYAMGWYRQATGKERELVAAITVRGGSTYYADSVKGRFSISRDNAKNTVYLQMYSLIPEDTAVYYCAAVWLDESFSYGPYYYWGQGTQVTVSS	low polyreactivity
QVQLVESGGGLVQAGGSLRLSCAASGRTFWRYAMGWYRQAPGKERELVAAITSGGGSTYYADSVKGRFTISRDNAKNTVYLQMNSLKPEDTAVYYCNRAGRGRSFKGDYWGQGTQVTVSS	high polyreactivity
QVQLVESGGGLVQAGGSLRVSCAASGGTFGNNDMGWYRQAPGKEWELFAAIRAAGTTYYADSVKGRFTISRDNAKNTVYLQMNSLKPEDTAVYYCIADTTGYWSYGFQYYGEDYWGQGTQVTVSS	low polyreactivity
QVHLVESGGGLVQAGGSLRLSCAASGSTFGTNAMGWYRQAPGKERELVARINSSASTTYADSVKGRFTISRDNAKNTVYLQMNSLKPEDTAVYYCAKSSLNIYDYWGQGTQVTVSS	high polyreactivity
QVQLVESGGGLVQAGGSLRLSCAASGLTFQSNAMGWSRQAPGKEREFVAAITSGGNTYYADSVKGRFTISRDNAKNTVYLQMNSLKPEDTAVYYCNADYQDEEDDYWGQGTQVTVSS	low polyreactivity
QVQLVESGGGLVQAGGSLRLSCAASGRTFRYYAIGWYRQAPGKERELVATISKSGGSTYYADSVKGRFTISRDNAKNTVYLQMNSLKPEDTAVYYCAAVGPYRWYDYWGQGTQVTVSS	high polyreactivity
QVQLVESGGGLVQAGGSLRLSCAASGITFYPYAMGWYRQAPGKERELVAAISFSGGSTYYADSVKGRFTISRDNAKNTVYLQMNSLKPEDTAVYYCAADRRSGDDYWGQGTQVTVSS	high polyreactivity
QVQLVESGGGLVQAGGSLRLSCAASGSIAGNAMGWYRQAPGKERELVATITRRGGRTYYADSVKGRFTISRDNAKNTVYLQMNSLKPEDTAVYYCNKVSYARGYDYWGQGTQVTVSS	high polyreactivity
QVQLQESGGLVQAGGSLRMSCAASGSISGRNVMGWYRQAPGKEREFVASITDGSSTNYADSVKGRFTISRDNAKNTLFLQMNSLKPKDTAVYYCAAYAQRGKSFGYWGRGTQVTVSS	low polyreactivity
QVQLVESGGGLVQAGGSLRLSCAASGLIFYSYAMGWYRQAPGKERELVAAITGGGSTNYADSVKGRFTISRDNAKNTVYLPMHSLKPEDTAVYYCAAAFTLRKYDYWGQGTQVTVSS	low polyreactivity
QVQLVESGGGLVQAGGSLRLSCAASGSTFGRNALGWYRQAPGKERELVASISWGGGSTYYADSVKGRFTISRDNSKNTVYLQMNSLKTEDTAVYYCNARRFLWSQLSGSFSYDYWGQGTQVTVSS	high polyreactivity
QVQLEESGGGLVQAGGSLRLSCAASGSTFTVNGMGWYRQAPGKERELVAAIDGGDGSTYYADSVKGRFTISRDNAKNTVYLQMNSLKPEDTAVYYCAADTPCFTQYGYWGQGTQVTVSS	low polyreactivity
QVQLVESGGGLVQAGGSLRLSCAASGRTFPINTMGWSRQAPGKEREFVAAITLGGRTYYADSVKGRFTISRDNAKNTVYLQMNSLKPEDTAVYYCAVAQPGYWLYRHFLPGSDYWGQGTQVTVSS	high polyreactivity
QVQLVETGGGLVQAGGSLRLSCAASGSTFSDYVMGWYRQAPGKERELVAAITWSGGSTYYADSVKGRFTISRDNAKNTVYLQMNSLKPEDTAVYYCAADPTASGHFLGQVDYWGQGTQVTVSS	high polyreactivity
QVQLVESGGGLVQAGGSLRLSCAASGTTFFINDLGWYRQAPGKERELVAAISWSGDSTYYPDSVKGRFTISRDNAKNTVYLQMKSLKPEDTAVYYCAADWGFVQPGWSYNYWGQGTQVTVSS	high polyreactivity
QVQLVESGGGLVQAGGSLRISCAASGRTFGYYGMGWSRQAPGKERELVAGITSRGGSTYYADSVKGRFTISRDNAKNTVYLQMNSLKPEDTAVYYCNAQYARKYGFWTAYDYWGQGTQVTVSS	high polyreactivity
QVQLVESGGGLVQAGGSLRLSCAASGSILYINAMGWYRQAPGKERELVAAITYSGGSTYYADSVKGRFTISRDNAKNTVYLQMNSLKPEDTAVYYWAADAVVAGRYDGHDYWGQGTQVTVSS	low polyreactivity
